Data reported in PMC10175746.

Target: pyruvate kinase isoform M2 (PKM2) (mouse (endogenous in Th17 cells)) (UniProt P52480)

Sequence of pyruvate kinase isoform M2 (PKM2), P52480 1-531 (enzyme; other documents disagree on this pair) (P52480 whole entry, canonical isoform): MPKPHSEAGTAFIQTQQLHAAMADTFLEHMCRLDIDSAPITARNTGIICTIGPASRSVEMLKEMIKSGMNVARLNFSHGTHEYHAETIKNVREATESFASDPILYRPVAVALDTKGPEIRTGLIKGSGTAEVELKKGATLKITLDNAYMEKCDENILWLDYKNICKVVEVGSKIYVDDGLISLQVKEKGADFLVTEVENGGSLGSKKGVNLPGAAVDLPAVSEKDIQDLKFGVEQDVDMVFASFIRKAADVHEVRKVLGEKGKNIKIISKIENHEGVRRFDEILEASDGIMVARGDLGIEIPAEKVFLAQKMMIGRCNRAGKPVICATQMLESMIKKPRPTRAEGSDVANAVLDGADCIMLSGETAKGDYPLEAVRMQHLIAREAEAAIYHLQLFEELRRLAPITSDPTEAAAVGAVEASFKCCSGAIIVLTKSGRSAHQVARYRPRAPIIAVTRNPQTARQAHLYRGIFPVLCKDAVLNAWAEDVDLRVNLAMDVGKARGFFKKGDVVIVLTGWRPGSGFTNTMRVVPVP

Question: With “pyruvate kinase isoform M2 (PKM2), P52480 1-531 (enzyme; other documents disagree on this pair)” as the substance, how does the stoichiometry N read?
Answer: The stoichiometry N was 4.
